Test results as given in ChEMBL document CHEMBL4414660, “Effect of Modifier Structure on the Activation of Leukotriene A4 Hydrolase Aminopeptidase Activity” (J Med Chem, 2019).

Columns and labels:
Conditions in all cases: Homo sapiens
[1] = compound: Nc1nc(-c2ccc(Cc3ccccc3)cc2)cs1; assay: (§1) Activation of N-terminal (His)6 and Xpress-tagged LTA4H (unknown origin) expressed in Escherichia coli BL21(DE3) cells assessed as increase in aminopeptidase activity by measuring Km for p-nitroanilide release at 5 uM using L-Alanine-p-nitroanilide incubated for 10 mins by UV plate reader based assay
[2] = compound: Nc1nc(-c2ccc(Cc3ccc(C(F)(F)F)cc3)cc2)cs1; assay: as §1
[3] = compound: COc1ccc(Cc2ccc(-c3csc(N)n3)cc2)cc1; assay: as §1
[4] = compound: Cc1ccc(Cc2ccc(-c3csc(N)n3)cc2)cc1; assay: (§2) Activation of N-terminal (His)6 and Xpress-tagged LTA4H (unknown origin) expressed in Escherichia coli BL21(DE3) cells assessed as increase in aminopeptidase activity by measuring Km for p-nitroanilide release at 0.1 uM using L-Alanine-p-nitroanilide incubated for 10 mins by UV plate reader based assay
[5] = compound: COc1ccc(Cc2ccccc2)cc1; assay: as §2
[6] = compound: Nc1nc(-c2ccc(Cc3ccccc3)cc2)cs1; assay: as §2
[7] = compound: Nc1nc(-c2ccc(Cc3ccc(C(F)(F)F)cc3)cc2)cs1; assay: as §2
[8] = compound: COc1ccc(Cc2ccc(-c3csc(N)n3)cc2)cc1; assay: as §2
[9] = compound: Cc1ccc(Cc2ccc(-c3csc(N)n3)cc2)cc1; assay: (§3) Activation of N-terminal (His)6 and Xpress-tagged LTA4H (unknown origin) expressed in Escherichia coli BL21(DE3) cells assessed as increase in aminopeptidase activity by measuring Kcat/Km ratio for p-nitroanilide release at 10 uM using L-Alanine-p-nitroanilide incubated for 10 mins by UV plate reader based assay
[10] = compound: COc1ccc(Cc2ccccc2)cc1; assay: as §3
[11] = compound: Nc1nc(-c2ccc(Cc3ccccc3)cc2)cs1; assay: as §3
[12] = compound: Nc1nc(-c2ccc(Cc3ccc(C(F)(F)F)cc3)cc2)cs1; assay: as §3
[13] = compound: COc1ccc(Cc2ccc(-c3csc(N)n3)cc2)cc1; assay: as §3
[14] = compound: Cc1ccc(Cc2ccc(-c3csc(N)n3)cc2)cc1; assay: (§4) Activation of N-terminal (His)6 and Xpress-tagged LTA4H (unknown origin) expressed in Escherichia coli BL21(DE3) cells assessed as increase in aminopeptidase activity by measuring Km for p-nitroanilide release at 10 uM using L-Alanine-p-nitroanilide incubated for 10 mins by UV plate reader based assay
[15] = compound: COc1ccc(Cc2ccccc2)cc1; assay: as §4
[16] = compound: Nc1nc(-c2ccc(Cc3ccccc3)cc2)cs1; assay: as §4
[17] = compound: Nc1nc(-c2ccc(Cc3ccc(C(F)(F)F)cc3)cc2)cs1; assay: as §4
[18] = compound: COc1ccc(Cc2ccc(-c3csc(N)n3)cc2)cc1; assay: as §4
[19] = compound: Cc1ccc(Cc2ccc(-c3csc(N)n3)cc2)cc1; assay: (§5) Activation of N-terminal (His)6 and Xpress-tagged LTA4H (unknown origin) expressed in Escherichia coli BL21(DE3) cells assessed as increase in aminopeptidase activity by measuring Kcat for p-nitroanilide release at 0.5 uM using L-Alanine-p-nitroanilide incubated for 10 mins by UV plate reader based assay
[20] = compound: COc1ccc(Cc2ccccc2)cc1; assay: as §5
[21] = compound: Nc1nc(-c2ccc(Cc3ccccc3)cc2)cs1; assay: as §5
[22] = compound: Nc1nc(-c2ccc(Cc3ccc(C(F)(F)F)cc3)cc2)cs1; assay: as §5
[23] = compound: COc1ccc(Cc2ccc(-c3csc(N)n3)cc2)cc1; assay: as §5
[24] = compound: Cc1ccc(Cc2ccc(-c3csc(N)n3)cc2)cc1; assay: (§6) Activation of N-terminal (His)6 and Xpress-tagged LTA4H (unknown origin) expressed in Escherichia coli BL21(DE3) cells assessed as increase in aminopeptidase activity by measuring Kcat for p-nitroanilide release at 0.1 uM using L-Alanine-p-nitroanilide incubated for 10 mins by UV plate reader based assay
[25] = compound: COc1ccc(Cc2ccccc2)cc1; assay: as §6
[26] = compound: Nc1nc(-c2ccc(Cc3ccccc3)cc2)cs1; assay: as §6
[27] = compound: Nc1nc(-c2ccc(Cc3ccc(C(F)(F)F)cc3)cc2)cs1; assay: as §6
[28] = compound: COc1ccc(Cc2ccc(-c3csc(N)n3)cc2)cc1; assay: as §6
[29] = compound: Cc1ccc(Cc2ccc(-c3csc(N)n3)cc2)cc1; assay: (§7) Activation of N-terminal (His)6 and Xpress-tagged LTA4H (unknown origin) expressed in Escherichia coli BL21(DE3) cells assessed as increase in aminopeptidase activity by measuring Kcat for p-nitroanilide release at 10 uM using L-Alanine-p-nitroanilide incubated for 10 mins by UV plate reader based assay
[30] = compound: COc1ccc(Cc2ccccc2)cc1; assay: as §7
[31] = compound: Nc1nc(-c2ccc(Cc3ccccc3)cc2)cs1; assay: as §7
[32] = compound: Nc1nc(-c2ccc(Cc3ccc(C(F)(F)F)cc3)cc2)cs1; assay: as §7
[33] = compound: COc1ccc(Cc2ccc(-c3csc(N)n3)cc2)cc1; assay: as §7
[34] = compound: Cc1ccc(Cc2ccc(-c3csc(N)n3)cc2)cc1; assay: (§8) Activation of N-terminal (His)6 and Xpress-tagged LTA4H (unknown origin) expressed in Escherichia coli BL21(DE3) cells assessed as increase in aminopeptidase activity by measuring Kcat for p-nitroanilide release at 5 uM using L-Alanine-p-nitroanilide incubated for 10 mins by UV plate reader based assay
[35] = compound: COc1ccc(Cc2ccccc2)cc1; assay: as §8
[36] = compound: Nc1nc(-c2ccc(Cc3ccccc3)cc2)cs1; assay: as §8
[37] = compound: Nc1nc(-c2ccc(Cc3ccc(C(F)(F)F)cc3)cc2)cs1; assay: as §8
[38] = compound: COc1ccc(Cc2ccc(-c3csc(N)n3)cc2)cc1; assay: as §8

B1: Leukotriene A-4 hydrolase (Homo sapiens), P09960 (protein)
chain: MPEIVDTCSLASPASVCRTKHLHLRCSVDFTRRTLTGTAALTVQSQEDNLRSLVLDTKDLTIEKVVINGQEVKYALGERQSYKGSPMEISLPIALSKNQEIVIEISFETSPKSSALQWLTPEQTSGKEHPYLFSQCQAIHCRAILPCQDTPSVKLTYTAEVSVPKELVALMSAIRDGETPDPEDPSRKIYKFIQKVPIPCYLIALVVGALESRQIGPRTLVWSEKEQVEKSAYEFSETESMLKIAEDLGGPYVWGQYDLLVLPPSFPYGGMENPCLTFVTPTLLAGDKSLSNVIAHEISHSWTGNLVTNKTWDHFWLNEGHTVYLERHICGRLFGEKFRHFNALGGWGELQNSVKTFGETHPFTKLVVDLTDIDPDVAYSSVPYEKGFALLFYLEQLLGGPEIFLGFLKAYVEKFSYKSITTDDWKDFLYSYFKDKVDVLNQVDWNAWLYSPGLPPIKPNYDMTLTNACIALSQRWITAKEDDLNSFNATDLKDLSSHQLNEFLAQTLQRAPLPLGHIKRMQEVYNFNAINNSEIRFRWLRLCIQSKWEDAIPLALKMATEQGRMKFTRPLFKDLAAFDKSHDQAVRTYQEHKASMHPVTAMLVGKDLKVD
For B1, the Km [1] was 4.72 mM, the Km [2] was 10.3 mM and the Km [3] was 6.77 mM. The Km [4] was 3.3 mM, the Km [5] was 0.98 mM and the Km [6] was 2.17 mM. The Km [7] was 2.27 mM, the Km [8] was 2.05 mM and the kcat/Km [9] was 11400 M⁻¹ s⁻¹. It also gave a kcat/Km [10] of 17300 M⁻¹ s⁻¹, a kcat/Km [11] of 9810 M⁻¹ s⁻¹ and a kcat/Km [12] of 2300 M⁻¹ s⁻¹. It also gave a kcat/Km [13] of 6680 M⁻¹ s⁻¹, a Km [14] of 3.12 mM and a Km [15] of 1.75 mM. It also gave a Km [16] of 4.03 mM, a Km [17] of 10.1 mM and a Km [18] of 6.6 mM. The kcat [19] was 31.3 s⁻¹, the kcat [20] was 5.54 s⁻¹ and the kcat [21] was 21.1 s⁻¹. It also gave a kcat [22] of 5.09 s⁻¹, a kcat [23] of 25.9 s⁻¹ and a kcat [24] of 21.1 s⁻¹. The kcat [25] was 3.01 s⁻¹, the kcat [26] was 9.63 s⁻¹ and the kcat [27] was 1.91 s⁻¹. It also gave a kcat [28] of 9.98 s⁻¹, a kcat [29] of 35.6 s⁻¹ and a kcat [30] of 30.3 s⁻¹. It also gave a kcat [31] of 39.6 s⁻¹, a kcat [32] of 23.2 s⁻¹ and a kcat [33] of 44.1 s⁻¹. The kcat [34] was 34.3 s⁻¹, the kcat [35] was 23.9 s⁻¹ and the kcat [36] was 42.2 s⁻¹. It also gave a kcat [37] of 20.9 s⁻¹ and a kcat [38] of 45.2 s⁻¹.
